Biological target: panel of anti-NAMPT murine monoclonal antibodies (mAbs)

B1: nicotinamide phosphoribosyltransferase (NAMPT) (protein)
chain: MNPAAEAEFNILLATDSYKVTHYKQYPPNTSKVYSYFECREKKTENSKLRKVKYEETVFYGLQYILNKYLKGKVVTKEKIQEAKDVYKEHFQDDVFNEKGWNYILEKYDGHLPIEIKAVPEGFVIPRGNVLFTVENTDPECYWLTNWIETILVQSWYPITVATNSREQKKILAKYLLETSGNLDGLEYKLHDFGYRGVSSQETAGIGASAHLVNFKGTDTVAGLALIKKYYGTKDPVPGYSVPAAEHSTITAWGKDHEKDAFEHIVTQFSSVPVSVVSDSYDIYNACEKIWGEDLRHLIVSRSTQAPLIIRPDSGNPLDTVLKVLEILGKKFPVTENSKGYKLLPPYLRVIQGDGVDINTLQEIVEGMKQKMWSIENIAFGSGGGLLQKLTRDLLNCSFKCSYVVTNGLGINVFKDPVADPNKRSKKGRLSLHRTPAGNFVTLEEGKGDLEEYGQDLLHTVFKNGKVTKSYSFDEIRKNAQLNIELEAAHH
  NAMPT-induced NFκB phosphorylation: highly efficacious in significantly reducing NAMPT-induced NFκB phosphorylation

— US20200132689
